# Test results: patent US20090131277A1 (PROSCAN RX PHARMA, published 2009)
# Target: T1, prostate-specific membrane antigen (PSMA) (human, UniProt Q04609 44-750, limits assumed, 125I-labelled in Examples 2 and 8 (site of iodination not stated); unlabelled in Examples 5 and 6)
# T1 construct: also called purified recombinant PSMA
# Assay: competition radioligand binding: 1 nM 125I-PSMA on plate-coated mimetope (SEQ ID NO:24), with 0 or 10 uM of the soluble peptide as competitor
# Description: For a typical competition binding experiment, the mimetope is coated to a solid support such as a 96-well plate by allowing 100 ul of a 10 uM solution of the mimetope (SEQ ID NO:24) in water to dry in the wells. The wells are then washed with TBST and blocked with 3% casein in TBST to minimize non-specific binding. The wells are then incubated with 1 nM ¹²⁵I-PSMA at a specific activity of about 80 000 dpm/pmol, containing 0 or 10 uM of alanine-mimetope. The plate is incubated O/N at 4° C. then the wells are rapidly washed with TBST to remove the unbound ligand fraction, and then counted in a gamma counter. The radioactivity counted in each wells represents the bound fraction of the ligand. An alanine-mimetope that binds to PSMA will thus reduce the binding of ¹²⁵I-PSMA to the coated (SEQ ID NO:24).
# T1 sequence (Q04609 44-750 limits assumed): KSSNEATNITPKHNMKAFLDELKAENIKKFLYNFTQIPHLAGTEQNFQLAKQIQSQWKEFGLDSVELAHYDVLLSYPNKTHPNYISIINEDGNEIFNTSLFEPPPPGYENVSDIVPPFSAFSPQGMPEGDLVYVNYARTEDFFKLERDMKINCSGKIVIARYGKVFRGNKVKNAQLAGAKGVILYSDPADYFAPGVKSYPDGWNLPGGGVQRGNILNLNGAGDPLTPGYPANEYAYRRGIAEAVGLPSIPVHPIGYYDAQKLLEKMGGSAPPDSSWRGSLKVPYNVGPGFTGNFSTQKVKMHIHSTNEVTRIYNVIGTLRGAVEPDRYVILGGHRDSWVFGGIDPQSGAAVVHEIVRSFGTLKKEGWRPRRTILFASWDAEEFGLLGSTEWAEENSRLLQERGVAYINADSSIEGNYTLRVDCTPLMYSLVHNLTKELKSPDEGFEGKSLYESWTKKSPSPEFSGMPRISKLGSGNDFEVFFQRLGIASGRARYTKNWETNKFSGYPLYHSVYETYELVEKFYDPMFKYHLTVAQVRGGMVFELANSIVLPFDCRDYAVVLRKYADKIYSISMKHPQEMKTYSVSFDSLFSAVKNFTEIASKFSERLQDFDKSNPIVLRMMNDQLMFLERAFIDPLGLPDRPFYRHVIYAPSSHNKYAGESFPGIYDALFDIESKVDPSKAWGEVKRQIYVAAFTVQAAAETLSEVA
row,Binder,binding result
1,KQSYNAIT [PS68],no binding (tested: 10 uM)
2,KQSYNFAT [PS69],no binding (tested: 10 uM)
